Data reported in the supplement of paper PMC11246515.
± gives the standard deviation of the averaged measurements.

Assay: total protein half-life in vivo (active degradation + dilution); higher = more stable protein
[1] = E. coli NCM3722 delta-clpP delta-lon delta-hslV, growth: N-lim chemostat, doubling time 6 h
[2] = E. coli NCM3722 delta-clpP, growth: N-lim chemostat, doubling time 6 h
[3] = E. coli NCM3722 delta-hslV, growth: N-lim chemostat, doubling time 6 h
[4] = E. coli NCM3722 delta-lon, growth: N-lim chemostat, doubling time 6 h
[5] = E. coli NCM3722 delta-smpB, growth: N-lim chemostat, doubling time 6 h
[6] = wild type E. coli NCM3722, growth: C-lim chemostat, doubling time 3 h
[7] = wild type E. coli NCM3722, growth: C-lim chemostat, doubling time 6 h
[8] = wild type E. coli NCM3722, growth: C-lim chemostat, doubling time 12 h
[9] = wild type E. coli NCM3722, growth: N-lim chemostat, doubling time 6 h
[10] = wild type E. coli NCM3722, growth: N-lim chemostat, doubling time 12 h
[11] = wild type E. coli NCM3722, growth: P-lim chemostat, doubling time 6 h
[12] = wild type E. coli NCM3722, growth: P-lim chemostat, doubling time 12 h

| Sequence | total protein half-life in vivo [1] [h] | total protein half-life in vivo [2] [h] | total protein half-life in vivo [3] [h] | total protein half-life in vivo [4] [h] | total protein half-life in vivo [5] [h] | total protein half-life in vivo [6] [h] | total protein half-life in vivo [7] [h] | total protein half-life in vivo [8] [h] | total protein half-life in vivo [9] [h] | total protein half-life in vivo [10] [h] | total protein half-life in vivo [11] [h] | total protein half-life in vivo [12] [h] |
| --- | --- | --- | --- | --- | --- | --- | --- | --- | --- | --- | --- | --- |
| MQENQQITKKEQYNLNKLQKRLRRNVGEAIADFNMIEEGDRIMVCLSGGKDSYTMLEILRNLQQSAPINFSLVAVNLDQKQPGFPEHVLPEYLEKLGVEYKIVEENTYGIVKEKIPEGKTTCSLCSRLRRGILYRTATELGATKIALGHHRDDILQTLFLNMFYGGKMKGMPPKLMSDDGKHIVIRPLAYCREKDIQRFADAKAFPIIPCNLCGSQPNLQRQVIADMLRDWDKRYPGRIETMFSAMQNVVPSHLCDTNLFDFKGITHGSEVVNGGDLAFDREEIPLQPACWQPEEDENQLDELRLNVVEVK | 5.11 ± 0.8 | 3.63 ± 0.23 | 0.983 ± 0.28 | 1.44 | 1.0485 ± 0.00067 | 1.63 ± 0.051 | 2.26 ± 0.035 | 2.85 ± 0.35 | 1.26 | 1.58 ± 0.57 | 2.23 ± 0.24 | 4.26 ± 0.73 |
| MWQAISRLLSEQLGEGEIELRNELPGGEVHAAWHLRYAGHDFFVKCDERELLPGFTAEADQLELLSRSKTVTVPKVWAVGADRDYSFLVMDYLPPRPLDAHSAFILGQQIARLHQWSDQPQFGLDFDNALSTTPQPNTWQRRWSTFFAEQRIGWQLELAAEKGIAFGNIDAIVEHIQQRLASHQPQPSLLHGDLWSGNCALGPDGPYIFDPACYWGDRECDLAMLPLHTEQPPQIYDGYQSVSPLPADFLERQPVYQLYTLLNRARLFGGQHLVIAQQSLDRLLAA | 4.14 ± 0.66 | 3.457 ± 0.023 | 3.84 ± 0.5 | 3.77 ± 0.099 | 3.3 ± 0.13 | 3.159 ± 0.0069 | 5.21 ± 0.11 | 9.56 ± 0.57 | 3.31 ± 0.31 | 5.08 ± 0.18 | 5.685 ± 0.017 | 11.2 ± 0.46 |
| MAISIKGVNTGVIRKSNNFIALALKIKEPRNKESLFFMSVMELRDLLIALESRLHQKHKLDAAAHLQYEQARDKVIKKMAENIPEILVDELKNADINRRVNTLELTDNQGENLTFVLTLHDGSKCELVVNELQIEMLARAIIHAINNAEMRELALRITSLLDFLPLYDVDCQDNGNLEYDTYSQPEWKHNLFDHYLAVLYRFKDESGKEQFSGAVVKTREATPGKEIEAITRRMLDFSPRLKKLAGVPCQVYVRTVAANNAQPLTQDQCLRALHHLRVQSTSKTAPQAK | 5.19 ± 0.073 |  |  |  | 2.7 ± 0.24 | 2.52 ± 0.14 | 4.83 ± 1.6 |  |  |  |  |  |
| MIIGNIHNLQPWLPQELRQAIEHIKAHVTAETPKGKHDIEGNRLFYLISEDMTEPYEARRAEYHARYLDIQIVLKGQEGMTFSTQPAGAPDTDWLADKDIAFLPEGVDEKTVILNEGDFVVFYPGEVHKPLCAVGAPAQVRKAVVKMLMA [P0AF96] | 4.25 ± 0.25 | 4.23 ± 2.1 | 3.43 |  | 3.75 ± 0.1 |  |  | 8.12 ± 0.22 | 3.18 ± 0.1 | 5.175 ± 0.0007 | 4.55 ± 0.89 | 10.1 ± 0.29 |
| MKIRSLSRFVLASTMFASFTASAVPGLWQQGYGQGNAEYSVTDASGKMFTINCTGNPDQNGIYQHSVFLILAGDKTVSSHDDSTGITVVMDHKQYAIPSTLGWRNGDNAWFSFIMDIRKARQFDVYVNDQKVGSFNPDVRNAQKVLPTLADCTND |  |  |  |  |  | 1.45 |  |  |  |  |  |  |
| MRVNNGLTPQELEAYGISDVHDIVYNPSYDLLYQEELDPSLTGYERGVLTNLGAVAVDTGIFTGRSPKDKYIVRDDTTRDTFWWADKGKGKNDNKPLSPETWQHLKGLVTRQLSGKRLFVVDAFCGANPDTRLSVRFITEVAWQAHFVKNMFIRPSDEELAGFKPDFIVMNGAKCTNPQWKEQGLNSENFVAFNLTERMQLIGGTWYGGEMKKGMFSMMNYLLPLKGIASMHCSANVGEKGDVAVFFGLSGTGKTTLSTDPKRRLIGDDEHGWDDDGVFNFEGGCYAKTIKLSKEAEPEIYNAIRRDALLENVTVREDGTIDFDDGSKTENTRVSYPIYHIDNIVKPVSKAGHATKVIFLTADAFGVLPPVSRLTADQTQYHFLSGFTAKLAGTERGITEPTPTFSACFGAAFLSLHPTQYAEVLVKRMQAAGAQAYLVNTGWNGTGKRISIKDTRAIIDAILNGSLDNAETFTLPMFNLAIPTELPGVDTKILDPRNTYASPEQWQEKAETLAKLFIDNFDKYTDTPAGAALVAAGPKL | 4.17 ± 0.081 | 3.55 ± 0.13 | 3.29 ± 0.037 | 4.19 ± 0.05 | 3.45 ± 0.21 | 3.53 ± 0.18 | 6.17 ± 0.42 | 10.5 ± 0.7 | 3.69 ± 0.2 | 5.13 ± 0.55 | 5.5 ± 0.58 | 10.7 ± 0.72 |
| MFEITGINVSGALKAVVMATGFENPLSSVNEIETKLSALLGSETTGEILFDLLCANGPEWNRFVTLEMKYGRIMLDTAKIIDEQDVPTHILSKLTFTLRNHPEYLEASVLSPDDVRQVLSMDF | 5.32 ± 0.4 |  |  |  |  | 2.73 | 5.11 |  |  |  |  |  |
| MSQPLLSVNGLMMRFGGLLAVNNVNLELYPQEIVSLIGPNGAGKTTVFNCLTGFYKPTGGTILLRDQHLEGLPGQQIARMGVVRTFQHVRLFREMTVIENLLVAQHQQLKTGLFSGLLKTPSFRRAQSEALDRAATWLERIGLLEHANRQASNLAYGDQRRLEIARCMVTQPEILMLDEPAAGLNPKETKELDELIAELRNHHNTTILLIEHDMKLVMGISDRIYVVNQGTPLANGTPEQIRNNPDVIRAYLGEA [P0A9S7] | 6.52 ± 0.66 | 6.12 ± 0.48 | 6.06 ± 0.53 | 6.07 ± 0.61 | 5.74 ± 0.43 | 3.12 ± 0.036 | 6.18 ± 0.31 | 11.99 ± 0.11 | 6.06 ± 0.2 | 12.3 ± 0.36 | 6.12 ± 0.34 | 12.9 ± 0.69 |
| MLRHNVPVRRDLDQIAADNGFDFHIIDNEIYWDESRAYRFTLRQIEEQIEKPTAELHQMCLEVVDRAVKDEEILTQLAIPPLYWDVIAESWRARDPSLYGRMDFAWCGNAPVKLLEYNADTPTSLYESAYFQWLWLEDARRSGIIPRDADQYNAIQERLISRFSELYSREPFYFCCCQDTDEDRSTVLYLQDCAQQAGQESRFIYIEDLGLGVGGVLTDLDDNVIQRAFKLYPLEWMMRDDNGPLLRKRREQWVEPLWKSILSNKGLMPLLWRFFPGHPNLLASWFDGEKPQIAAGESYVRKPIYSREGGNVTIFDGKNNVVDHADGDYADEPMIYQAFQPLPRFGDSYTLIGSWIVDDEACGMGIREDNTLITKDTSRFVPHYIAG | > 8 | > 8 | > 8 | > 8 |  |  |  | 8.91 | > 8 | > 16 | > 8 | > 16 |
| MIARWFWREWRSPSLLIVWLALSLAVACVLALGNISDRMEKGLSQQSREFMAGDRALRSSREVPQAWLEEAQKRGLKVGKQLTFATMTFAGDTPQLANVKAVDDIYPMYGDLQTNPPGLKPQAGSVLLAPRLMALLNLKTGDTIDVGDATLRIAGEVIQEPDSGFNPFQMAPRLMMNLADVDKTGAVQPGSRVTWRYKFGGNENQLDGYEKWLLPQLKPEQRWYGLEQDEGALGRSMERSQQFLLLSALLTLLLAVAAVAVAMNHYCRSRYDLVAILKTLGAGRAQLRKLIVGQWLMVLTLSAVTGGAIGLLFENVLMVLLKPVLPAALPPASLWPWLWALGTMTVISLLVGLRPYRLLLATQPLRVLRNDVVANVWPLKFYLPIVSVVVVLLLAGLMGGSMLLWAVLAGAVVLALLCGVLGWMLLNVLRRMTLKSLPLRLAVSRLLRQPWSTLSQLSAFSLSFMLLALLLVLRGDLLDRWQQQLPPESPNYFLINIATEQVAPLKAFLAEHQIVPESFYPVVRARLTAINDKPTEGNEDEALNRELNLTWQNTRPDHNPIVAGNWPPKADEVSMEEGLAKRLNVALGDTVTFMGDTQEFRAKVTSLRKVDWESLRPNFYFIFPEGALDGQPQSWLTSFRWENGNGMLTQLNRQFPTISLLDIGAILKQVGQVLEQVSRALEVMVVLVTACGMLLLLAQVQVGMRQRHQELVVWRTLGAGKKLLRTTLWCEFAMLGFVSGLVAAIGAETALAVLQAKVFDFPWEPDWRLWIVLPCSGALLLSLFGGWLGARLVKGKALFRQFAG | 6.27 ± 0.098 |  | 6.06 ± 0.42 | 6.45 ± 0.35 | 6.86 ± 0.47 | 3.48 ± 0.66 | 6.92 ± 1.4 |  | 6.21 ± 1.2 | 13.3 ± 1.4 | 5.85 ± 0.5 | 10.5 ± 0.91 |
| MMKTVKHLLCCAIAASALISTGVHAASWKDALSSAASELGNQNSTTQEGGWSLASLTNLLSSGNQALSADNMNNAAGILQYCAKQKLASVTDAENIKNQVLEKLGLNSEEQKEDTNYLDGIQGLLKTKDGQQLNLDNIGTTPLAEKVKTKACDLVLKQGLNFIS | 2.77 ± 0.018 | 2.37 | 2.68 | 3.02 ± 0.12 | 2.56 ± 0.057 | 2.22 ± 0.24 | 3.873 ± 0.035 | 3.5 | 2.1 |  | 3.43 | 3.72 ± 0.56 |
